According to US20240116985A1 (published 2024):
Starred links: 1 amine or outer side, 2 acyl side, 3 side chain; linkers in the order of their positions; H or OH if unused. Positions of bridges follow the written chain, without caps; N, C: chain ends. Non-standard residues stand in square brackets, D forms with d. Primed or numbered codes have the meaning given here. ξ: configuration not given here. PyrS2(3) = (S)-3-amino-1-((pent-4-en-1-yloxy)carbonyl)pyrrolidine-3-carboxylic acid, stapling residue, C=CCCCOC(=O)N1CC[C@@](N[*:1])(C(=O)[*:2])C1; PyrS2″ = (S)-3-amino-1-((pent-4-en-1-yloxy)carbonyl)pyrrolidine-3-carboxylic acid (stapling residue), C=CCCCOC(=O)N1CC[C@@](N[*:1])(C(=O)[*:2])C1; B5(16) = 2-amino-2-(pent-4-en-1-yl)hept-6-enoic acid = 2,2-bis(4-pentenyl)glycine (stitching residue), C=CCCCC(CCCC=C)(N[*:1])C(=O)[*:2]; B5(4) = 2,2-bis(4-pentenyl)glycine = 2-amino-2-(pent-4-en-1-yl)hept-6-enoic acid (stitching residue), C=CCCCC(CCCC=C)(N[*:1])C(=O)[*:2]; B5(20) = 2-amino-2-(pent-4-en-1-yl)hept-6-enoic acid = bis(4-pentenyl)glycine, stitching residue, C=CCCCC(CCCC=C)(N[*:1])C(=O)[*:2]; B5(6) = 2-amino-2-(pent-4-en-1-yl)hept-6-enoic acid (bis(4-pentenyl)glycine), stitching residue, C=CCCCC(CCCC=C)(N[*:1])C(=O)[*:2]; TfeGA = (S)-2-amino-3-((carboxymethyl)(2,2,2-trifluoroethyl)amino)propanoic acid, O=C([C@H](CN(CC(=O)[*:3])CC(F)(F)F)N[*:1])[*:2]; PyrS2 = (S)-3-amino-1-((pent-4-en-1-yloxy)carbonyl)pyrrolidine-3-carboxylic acid, C=CCCCOC(=O)N1CC[C@@](N[*:1])(C(=O)[*:2])C1; B5(3) = 2,2-bis(4-pentenyl)glycine (stitching residue), C=CCCCC(CCCC=C)(N[*:1])C(=O)[*:2]; B5″ = 2,2-bis(4-pentenyl)glycine, stitching residue, C=CCCCC(CCCC=C)(N[*:1])C(=O)[*:2]; Phe(2-CONH2) = NC(=O)c1ccccc1C[C@H](N)C(=O)O; Phe(2-Cl) = N[C@@H](Cc1ccccc1Cl)C(=O)O; Phe(2-OMe) = COc1ccccc1C[C@H](N)C(=O)O; Bta = N[C@@H](Cc1csc2ccccc12)C(=O)O; αAllylPro = C=CC[C@@]1(C(=O)O)CCCN1; tBuAla = CC(C)(C)C[C@H](N)C(=O)O; 3Thi = N[C@@H](Cc1ccsc1)C(=O)O; Cha = N[C@@H](CC1CCCCC1)C(=O)O; S8 = C=CCCCCCC[C@](C)(N)C(=O)O; Thr(ol) = C[C@@H](O)[C@H](N)CO; R5 = C=CCCC[C@@](C)(N)C(=O)O; ξβ3hD = NC(CC(=O)O)CC(=O)O; Aib = CC(C)(N)C(=O)O

T1: beta-catenin in TCF/LEF luciferase reporter cells (Homo sapiens (Human), UniProt P35222 1-781)
T1 sequence: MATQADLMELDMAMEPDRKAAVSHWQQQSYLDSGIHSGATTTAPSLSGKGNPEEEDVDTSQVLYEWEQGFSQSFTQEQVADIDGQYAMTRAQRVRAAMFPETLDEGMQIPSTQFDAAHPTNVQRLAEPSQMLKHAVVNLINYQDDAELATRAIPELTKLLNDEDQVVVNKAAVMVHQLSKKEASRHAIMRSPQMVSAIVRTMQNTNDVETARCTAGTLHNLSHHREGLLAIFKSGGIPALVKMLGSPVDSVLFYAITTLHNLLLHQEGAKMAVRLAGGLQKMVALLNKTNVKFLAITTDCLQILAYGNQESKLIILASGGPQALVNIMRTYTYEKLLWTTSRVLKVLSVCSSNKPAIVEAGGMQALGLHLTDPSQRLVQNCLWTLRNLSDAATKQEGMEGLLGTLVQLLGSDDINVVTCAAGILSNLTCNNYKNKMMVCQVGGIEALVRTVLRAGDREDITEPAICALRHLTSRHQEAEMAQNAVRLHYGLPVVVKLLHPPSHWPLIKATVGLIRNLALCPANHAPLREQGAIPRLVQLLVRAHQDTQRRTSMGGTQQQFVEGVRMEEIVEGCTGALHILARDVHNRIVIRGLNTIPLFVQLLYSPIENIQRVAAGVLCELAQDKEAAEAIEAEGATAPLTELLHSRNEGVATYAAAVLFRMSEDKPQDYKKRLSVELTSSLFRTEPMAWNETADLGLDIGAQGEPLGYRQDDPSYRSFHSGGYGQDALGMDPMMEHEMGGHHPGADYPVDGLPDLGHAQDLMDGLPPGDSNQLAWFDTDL

T2: B-cat-Halo (beta-catenin HaloTag construct expressed in HEK293 cells) (UniProt P35222 1-781)
T2 sequence (looked up): T1 sequence

T3: B-cat-Halo (NanoBRET construct expressed in HEK293 cells) (UniProt P35222 1-781)
T3 sequence (looked up): T1 sequence

T4: B-cat-Halo (UniProt P35222 1-781)
T4 sequence (looked up): T1 sequence

T5: full-length beta-Catenin (Uniprot ID P35222) (Homo sapiens (Human), UniProt P35222 1-781)
T5 construct: also called bCat; B-Catenin
T5 sequence: T1 sequence

T6: full-length beta-Catenin (Uniprot ID P35222) (Homo sapiens (Human), UniProt P35222 1-781)
T6 construct: also called bCat
T6 sequence: T1 sequence

B1: I-922 (peptide)
peptide: Ac-[αAllylPro]D[tBuAla][B5(3)]D[TfeGA]AAFT[PyrS2″][Phe(2-Cl)][Bta]Q-NH2
modifications: staple 1-4, 4-11
B2: I-1173 (peptide)
peptide: Ac-[αAllylPro]D[Cha][B5(4)]DTAAFT[PyrS2″][3Thi][Bta]Q-NH2
modifications: staple 1-4, 4-11
B3: I-1167 (peptide)
peptide: Ac-[αAllylPro]D[tBuAla][B5(4)]DTAAFL[PyrS2″][3Thi][Bta]Q-NH2
modifications: staple 1-4, 4-11
B4: I-1177 (peptide)
peptide: Ac-[αAllylPro]D[tBuAla][B5(4)]DD[Aib]AFL[PyrS2″][3Thi][Bta]Q-NH2
modifications: staple 1-4, 4-11
B5: I-1170 (peptide)
peptide: Ac-[αAllylPro]D[tBuAla][B5(4)]DTAAFT[PyrS2″][3Thi][Bta]S-NH2
modifications: staple 1-4, 4-11
B6: I-1188 (peptide)
peptide: Ac-[αAllylPro]D[tBuAla][B5″]DDAAFL[S8][3Thi][Bta]Q-NH2
modifications: staple 1-4, 4-11
B7: I-1166 (peptide)
peptide: Ac-[αAllylPro]D[tBuAla][B5(4)]DTAAFT[PyrS2″][3Thi][Bta]Q-NH2
modifications: staple 1-4, 4-11
B8: I-1195 (peptide)
peptide: Ac-[αAllylPro]D[tBuAla][B5″]DDAAFL[S8][3Thi][Bta]H-NH2
modifications: staple 1-4, 4-11
B9: I-1161 (peptide)
peptide: Ac-[αAllylPro][ξβ3hD][tBuAla][B5(4)]D[TfeGA]AAFN[PyrS2″][3Thi][Bta]Q-NH2
modifications: staple 1-4, 4-11
B10: I-517 (peptide)
peptide: Ac-[αAllylPro]DI[B5(20)]DEAAFN[S8][3Thi][Bta]H-NH2
modifications: staple 1-4, 4-11
B11: I-506 (peptide)
peptide: Ac-[αAllylPro]DL[B5(6)]DEAAFQ[S8]F[Bta]H-NH2
modifications: staple 1-4, 4-11
notes: Stapled peptide composition
B12: I-521 (peptide)
peptide: Ac-[αAllylPro]DI[B5(20)]DEAAFN[S8][3Thi][Bta]Q-NH2
modifications: staple 1-4, 4-11; also: later-eluting HPLC peak of staple isomers
B13: I-516 (peptide)
peptide: Ac-[αAllylPro]DA[B5(20)]DEAAFN[S8][3Thi][Bta]H-NH2
modifications: staple 1-4, 4-11; also: later-eluting HPLC peak of staple isomers
B14: I-512 (peptide)
peptide: Ac-[αAllylPro]DI[B5(20)]DEAAFN[S8][Phe(2-OMe)][Bta]H-NH2
modifications: staple 1-4, 4-11
notes: Stapled peptide composition
B15: I-514 (peptide)
peptide: Ac-[αAllylPro]DI[B5(20)]DEAAFN[S8][Phe(2-CONH2)][Bta]H-NH2
modifications: staple 1-4, 4-11
notes: Stapled peptide composition
B16: I-519 (peptide)
peptide: Ac-[αAllylPro]DA[B5(20)]DEAAFN[S8][3Thi][Bta]Q-NH2
modifications: staple 1-4, 4-11; also: later-eluting HPLC peak of staple isomers
B17: I-1303 (peptide)
peptide: Ac-[αAllylPro]D[tBuAla][B5(4)]DDAAFF[PyrS2][3Thi][Bta][Thr(ol)]
modifications: staple 1-4, 4-11
B18: I-1307 (peptide)
peptide: Ac-[αAllylPro]D[Cha][B5(4)]DDAAFL[PyrS2″][Phe(2-Cl)][Bta][Thr(ol)]
modifications: staple 1-4, 4-11
B19: I-1309 (peptide)
peptide: Ac-[αAllylPro]D[tBuAla][B5(4)]DTAAFT[PyrS2″][Phe(2-Cl)][Bta][Thr(ol)]
modifications: staple 1-4, 4-11
B20: I-1311 (peptide)
peptide: Ac-[αAllylPro]D[tBuAla][B5(4)]DDAAFF[PyrS2″][Phe(2-Cl)][Bta][Thr(ol)]
modifications: staple 1-4, 4-11
B21: I-1308 (peptide)
peptide: Ac-[αAllylPro]D[tBuAla][B5(4)]DDAAFT[S8][Phe(2-Cl)][Bta][Thr(ol)]
modifications: staple 1-4, 4-11
B22: I-1310 (peptide)
peptide: Ac-[αAllylPro]D[Cha][B5(4)]DTAAFT[PyrS2″][Phe(2-Cl)][Bta][Thr(ol)]
modifications: staple 1-4, 4-11
B23: I-1304 (peptide)
peptide: Ac-[αAllylPro]N[tBuAla][B5(4)]DDAAFL[PyrS2][3Thi][Bta][Thr(ol)]
modifications: staple 1-4, 4-11
B24: I-1155 (peptide)
peptide: Ac-[αAllylPro]DF[B5(16)]DDLLFS[PyrS2″][Phe(2-Cl)][Bta]Q-NH2
modifications: staple 1-4, 4-11
notes: stapled peptide
B25: I-1154 (peptide)
peptide: Ac-[αAllylPro]DF[B5(16)]DDALFS[PyrS2″][Phe(2-Cl)][Bta]Q-NH2
modifications: staple 1-4, 4-11
notes: stapled peptide
B26: I-1153 (peptide)
peptide: Ac-[αAllylPro]DF[B5(16)]DDLAFS[PyrS2″][Phe(2-Cl)][Bta]Q-NH2
modifications: staple 1-4, 4-11
notes: stapled peptide
B27: I-1158 (peptide)
peptide: Ac-[αAllylPro]DF[B5(4)]DDLLFT[PyrS2″][Phe(2-Cl)][Bta]S-NH2
modifications: staple 1-4, 4-11
notes: stapled peptide
B28: I-1157 (peptide)
peptide: Ac-[αAllylPro]DF[B5(4)]DDALFT[PyrS2″][Phe(2-Cl)][Bta]S-NH2
modifications: staple 1-4, 4-11
notes: stapled peptide
B29: I-1156 (peptide)
peptide: Ac-[αAllylPro]DF[B5(16)]DDLAFT[PyrS2″][Phe(2-Cl)][Bta]S-NH2
modifications: staple 1-4, 4-11
notes: stapled peptide
B30: I-1184 (peptide)
peptide: Ac-PD[Cha][R5]DDAAFT[PyrS2(3)][Phe(2-Cl)][Bta]S-NH2
modifications: staple 4-11
notes: stapled peptide (single staple)
B31: I-1183 (peptide)
peptide: Ac-PD[tBuAla][R5]DDAAFN[PyrS2(3)][Phe(2-Cl)][Bta]Q-NH2
modifications: staple 4-11
notes: as for B30

target: T1, beta-catenin in TCF/LEF luciferase …; assay: cell-based or functional assay

Binder | TCF Reporter Assay Abs IC50 (uM), peptide + ST-Protein [µM] | TCF Reporter Assay Abs IC50 (uM), peptide only [µM]
B1 | 0.2 | 5

target: T2, B-cat-Halo (beta-catenin HaloTag …); assay: cell-based or functional assay

Binder | NanoBRET Abs IC50 [µM]
B2 | 17.2
B3 | 11.7
B4 | 4.3
B5 | 13.5
B6 | 7.2
B7 | 14.6
B8 | 16.2
B9 | > 20

target: T3, B-cat-Halo (NanoBRET construct …); assay: cell-based or functional assay

Binder | NanoBRET Abs IC50 [µM]
B10 | 9.7
B11 | 8.9
B12 | 15.4
B13 | 30.5
B14 | 12.3
B15 | > 20
B16 | 28.8

target: T4, B-cat-Halo; assay: cell-based or functional assay

Binder | NanoBRET Abs IC50 (uM); B-cat-Halo / TCF4-Luc in HEK293 cells [µM]
B17 | 9.1
B18 | 38.8
B19 | 28.6
B20 | 20.6
B21 | 11.9
B22 | > 20
B23 | 33.6

target: T5, full-length beta-Catenin (Uniprot ID …); assay: FP competition: full-length beta-catenin 10 nM + 5FAM-TCF4(10-53) 10 nM
Procedure: (§1) The plate was incubated protected from light for 60 minutes at 20° C. prior to read. Reads were performed on a CLARIOstar plate reader (BMG Labtech) in duplicate, and data were fitted to a 1:1 binding model with hill slope using an in-house script. All provided concentrations are final concentrations.

Binder | IC50 [µM]
B11 | 0.025
B14 | 0.02
B15 | 0.03

target: T6, full-length beta-Catenin (Uniprot ID …); assay: fluorescence polarization competition; full-length beta-catenin; competitor 5FAM-TCF4(10-53) probe
Procedure: as §1

Binder | EC50 [µM]
B24 | 0.06
B25 | 0.045
B26 | 0.012
B27 | 0.168
B28 | 0.036
B29 | 0.014
B30 | 0.176
B31 | 0.409
